The experiment addresses T1, EGFR on cells (UniProt P00533 25-1210, limits assumed).
T1 construct: whole, on cells; also called epidermal growth factor receptor
Briefly: flow cytometry on MDA-MB-468 cells, anti-human-Alexa 488.

B1: anti-CD3 antibody (COVA489) (antibody, human IgG1, kappa, V domains shown)
VH: QVQLQQSGAELARPGASVKMSCKASGYTFTRSTMHWVKQRPGQGLEWIGYINPSSAYTNYNQKFKDKATLTADKSSSTAYMQLSSLTSEDSAVYYCASPQVHYDYNGFPYWGQGTLVTVSA
VL: QVVLTQSPAIMSAFPGEKVTMTCSASSSVSYMNWYQQKSGTSPKRWIYDSSKLASGVPARFSGSGSGTSYSLTISSMETEDAATYYCQQWSRNPPTFGGGTKLQITR
For the molecule B1, the binding result is listed as “no binding (tested: 100 nM)”.

These data come from patent US20170307628A1 (EIDGENOESSISCHE TECHNISCHE HOCHSCHULE ZURICH, published 2017).
